Laboratory results from patent US20060063701A1 (INSTITUTE FOR PROTEIN SCIENCE, published 2006).
Ends that are not written are not given here.

How the values were obtained:
recombinant human C5a = molecular target: T1, recombinant human C5a (human, UniProt P01031 678-751); test: SPR (Biacore), C5a amine-coupled to CM5 chip, peptide as analyte
T1 construct: domain: C5a anaphylatoxin (74-amino acid peptide); The calcium assay names recombinant human C5a; The SPR section says only 'C5a'; C5a is a 74-residue fragment of it; also called RhC5a; C5a anaphylatoxin
T1 sequence (looked up): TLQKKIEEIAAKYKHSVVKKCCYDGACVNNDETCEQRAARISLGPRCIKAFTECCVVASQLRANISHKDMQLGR
Protocol: (§1) FIG. 1. Binding of C-peptides to immobilized PL37-MAP and C5a using Biacore equipment. An overlay plot of response curves obtained from the Biacore instrument when various concentrations of Pep-A and Pep-B were injected. All samples were injected at time 0, and the association was monitored as an increase in RU. a, Various concentrations of Pep-A were injected over the PL37-MAP-coupled flow cell. b, The same concentrations of Pep-B were also injected over the PL37-MAP-coupled flow cell. c, Pep-A was injected over the C5a-coupled flow cell at the same concentrations of Pep-A as in FIG. 1a. d, The same concentrations of Pep-B were also injected over the C5a-coupled flow cell.
(§2) Binding interactions between PL37 or C5a with C-peptides were evaluated using surface plasmon resonance (SPR) technology with the Biacore system. PL37 and C5a were covalently immobilized on the CM5 sensor chip by amine coupling methods using N-ethyl-N-(dimethylaminopropyl)carbodiimide/N-hydroxysuccinimide (EDC/NHS) according to the manufacturer's instructions. […] Binding interactions were determined by passing samples simultaneously over both the EA-blocked cell and the flow cell with immobilized PL37 or C5a so as to obtain units of resonance response (RU) by subtraction of the background using Biacore software (BIA evaluation).

[1] = molecular target: T2, PL37 in multiple antigenic peptide form (human, also: multiple antigenic peptide form, core and copy number not given here, abstract and print the sequence differently); test: SPR (Biacore), PL37-MAP amine-coupled to CM5 chip, peptide as analyte
T2 construct: PL37 is the fragment aa 37-53 of C5a anaphylatoxin; The assays used the MAP form; its core and valency are not described; also called PL37-MAP
T2 peptide: RAARISLGPRCIKAFTE
Protocol: as §1
as §2, with “evaluation). […]” for “evaluation).”

binding result (recombinant human C5a): no binding
binding result [1]: no binding
B1: Peptide-B (peptide)
peptide: ASTAPARAGLPRLPKFF
notes: Synthetic 17-residue complementary peptide designed with MIMETIC against PL37; also called Pep-B; C-peptide B
